These results are taken from patent publication US11155586B2, “Cystine knot scaffold platform” (Genentech, Inc., priority 2015, dated 2021).

Positions of bridges follow the written chain, without caps; N, C: chain ends. Residues, ends and D or L forms follow the SMILES beside them.

The assay concerns the target T1, hVEGF(8-109) (Homo sapiens, UniProt P15692).
T1 construct: hVEGF(8-109) or BSA were coated on 384-well MAXISORP™ immunoplates
T1 sequence (P15692 214-315): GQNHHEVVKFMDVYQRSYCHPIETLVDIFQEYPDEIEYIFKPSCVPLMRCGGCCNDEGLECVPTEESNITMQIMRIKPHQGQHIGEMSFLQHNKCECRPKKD
The assay is described as follows: Spot phage ELISA. It is filed as binding. The protocol:
After four rounds of binding selection, individual phage clones were picked and inoculated into 450 μl 2YT media containing 50 µg/ml Carbenecillin and M13-KO7 helper phage in 96-well blocks, which were grown at 37° C. overnight. The supernatant was analyzed with spot phage ELISA as follows: hVEGF(8-109) or BSA were coated on 384-well MAXISORP™ immunoplates and phage supernatant diluted (1:3) with PBT buffer was added to the wells. The plates were washed and bound phage was detected with anti-M13-HRP followed by TMB substrate. In these assays, phage binding to BSA alone was tested in parallel to assess background binding. Clones whose binding signals for hVEGF-A (8-109) were more than 3 times higher than to BSA (background) were considered positive. Positive clones were subjected to DNA sequence analysis.

The mark [1] stands for this setting: loop 2 variants based on VEGF_CKP9.63 framework, Table 27.
[2] abbreviates: VEGF_CKP9 Loop1/Loop5 affinity-matured variants, Table 24.
Where [3] appears, read: spot phage ELISA signal, EETI-II-based binders against hVEGF-A, Table 19.

Consider “GCDVMQPYWGCGLDEECLAGCVCHWYNSCG [VEGF_CKP9.63.37]”, for which, for the setting “Table 27”, the “S/N (signal to noise ratio as compared to BSA control)” value stood at 8.6. Further, the ELISA under setting [1] was found to be 0.6.
In the case of “GCDVMQPYWGCGFDMDCLAGCVCHWYNSCG [VEGF_CKP9.63.65]”, the “S/N (signal to noise ratio as compared to BSA control)” value (Table 27) came to 27.1. For the same molecule, under setting [1], the ELISA was determined as 2.0.
As for `CC[C@H](C)[C@@H]1NC(=O)[C@H](CCC(N)=O)NC(=O)[C@@H](NC(=O)CN)CSSC[C@@H](C(=O)N[C@H](C(=O)N[C@H]2CSSC[C@@H](C(=O)NCC(=O)O)NC(=O)[C@H](CO)NC(=O)[C@H](CC(N)=O)NC(=O)[C@H](Cc3ccc(O)cc3)NC(=O)[C@H](Cc3ccccc3)NC(=O)[C@H](Cc3c[nH]cn3)NC2=O)C(C)C)NC(=O)CNC(=O)[C@H](C)NC(=O)[C@H](CC(C)C)NC(=O)[C@@H]2CSSC[C@H](NC(=O)CNC(=O)[C@H](Cc3c[nH]c4ccccc34)NC(=O)[C@H](Cc3ccccc3)NC(=O)[C@@H]3CCCN3C(=O)[C@H](CCC(N)=O)NC(=O)[C@H](CO)NC1=O)C(=O)N[C@@H](CCCCN)C(=O)N[C@@H](CCC(N)=O)C(=O)N[C@@H](CC(=O)O)C(=O)N[C@@H](CO)C(=O)N[C@@H](CC(=O)O)C(=O)N2` [VEGF_CKP9.3] (H-GCQISQPFWGCKQDSDCLAGCVCHFYNSCG-OH; disulfide 2-21, 11-17, 23-29 (inferred); N-terminus and C-terminus assumed), the “S/N (signal to noise ratio as compared to BSA control)” value (Table 24) is on record as 24.5. Also, the ELISA under setting [2] came to 1.6.
For “GCDVMQPYWGCGQDLTCLAGCVCHWYNSCG [VEGF_CKP9.63.50]”, the “S/N (signal to noise ratio as compared to BSA control)” value (Table 27) is reported as 12.7. This molecule gave an ELISA under setting [1] of 0.9.
In the same order, the values of “GCDVMQPYWGCGNSFECLAGCVCHWYNSCG [VEGF_CKP9.63.47]” are 20.7 and 1.7.
On to “GCDVMQPYWGCGVDLSCLAGCVCHWYNSCG [VEGF_CKP9.63.3]”, for which, for the setting “Table 27”, the “S/N (signal to noise ratio as compared to BSA control)” value worked out at 20.7. For the same molecule, under setting [1], the ELISA was determined as 1.7.
In the same order, the values of “GCDVMQPYWGCGVDMTCLAGCVCHWYNSCG [VEGF_CKP9.63.15]” are 21.4 and 1.5.
With `CC[C@H](C)[C@@H]1NC(=O)[C@H](CC(=O)O)NC(=O)[C@H](Cc2c[nH]cn2)NC(=O)[C@@H]2CCCN2C(=O)[C@H](CCC(=O)O)NC(=O)[C@H](Cc2c[nH]c3ccccc23)NC(=O)[C@@H]2CCCN2C(=O)[C@H]([C@@H](C)O)NC(=O)[C@H](CCCNC(=N)N)NC(=O)[C@@H](NC(=O)CN)CSSC[C@@H]2NC(=O)CNC(=O)[C@H](C)NC(=O)[C@H](CC(C)C)NC(=O)[C@@H]3CSSC[C@@H](C(=O)NCC(=O)O)NC(=O)[C@H](Cc4ccccc4)NC(=O)CNC(=O)[C@H](CC(N)=O)NC(=O)[C@@H]4CCCN4C(=O)CNC(=O)[C@H](CSSC[C@H](NC(=O)[C@H]([C@@H](C)O)NC1=O)C(=O)N[C@@H](CCCCN)C(=O)N[C@@H](CCC(N)=O)C(=O)N[C@@H](CC(=O)O)C(=O)N[C@@H](CO)C(=O)N[C@@H](CC(=O)O)C(=O)N3)NC(=O)[C@H](C(C)C)NC2=O` [VEGF_CKP11] (H-GCRTPWEPHDITCKQDSDCLAGCVCGPNGFCG-OH; disulfide 2-23, 13-25, 19-31; N-terminus and C-terminus assumed), the “S/N (signal to noise ratio as compared to BSA control)” value (Table 19) is recorded as 57.5. Under setting [3], this molecule returned an ELISA of 4.1.
With “GCDVMQPYWGCGQDYNCLAGCVCHWYNSCG [VEGF_CKP9.63.56]”, the “S/N (signal to noise ratio as compared to BSA control)” value (Table 27) is on record as 8.4. The molecule also showed an ELISA under setting [1] of 1.8.
In the case of “GCDVMQPYWGCAGDFECLAGCVCHWYNSCG [VEGF_CKP9.63.42]”, the “S/N (signal to noise ratio as compared to BSA control)” value (Table 27) is recorded as 23.1. The molecule further had an ELISA under setting [1] of 1.7.
In the case of “GCDVMQPYWGCGRDLQCLAGCVCHWYNSCG [VEGF_CKP9.63.2]”, the “S/N (signal to noise ratio as compared to BSA control)” value (Table 27) amounted to 15.0. Moreover, the ELISA under setting [1] was 2.0.
For “GCDVMQPYWGCDGDYQCLAGCVCHWYNSCG [VEGF_CKP9.63.18]” the same measures were 17.3 and 2.3.
Consider `CC[C@H](C)[C@@H]1NC(=O)[C@H](Cc2c[nH]c3ccccc23)NC(=O)[C@H](Cc2c[nH]cn2)NC(=O)[C@@H]2CCCN2C(=O)[C@H](CCCCN)NC(=O)[C@H](Cc2c[nH]c3ccccc23)NC(=O)[C@@H]2CCCN2C(=O)[C@H]([C@@H](C)O)NC(=O)[C@H](C(C)C)NC(=O)[C@@H](NC(=O)CN)CSSC[C@@H]2NC(=O)CNC(=O)[C@H](C)NC(=O)[C@H](CC(C)C)NC(=O)[C@@H]3CSSC[C@@H](C(=O)NCC(=O)O)NC(=O)[C@H](Cc4ccccc4)NC(=O)CNC(=O)[C@H](CC(N)=O)NC(=O)[C@@H]4CCCN4C(=O)CNC(=O)[C@H](CSSC[C@H](NC(=O)[C@H](CC(N)=O)NC1=O)C(=O)N[C@@H](CCCCN)C(=O)N[C@@H](CCC(N)=O)C(=O)N[C@@H](CC(=O)O)C(=O)N[C@@H](CO)C(=O)N[C@@H](CC(=O)O)C(=O)N3)NC(=O)[C@H](C(C)C)NC2=O` [VEGF_CKP13] (H-GCVTPWKPHWINCKQDSDCLAGCVCGPNGFCG-OH; disulfide 2-23, 13-25, 19-31; N-terminus and C-terminus assumed), for which the “S/N (signal to noise ratio as compared to BSA control)” value (Table 19) turned out to be 56.3. The ELISA under setting [3] came out at 3.5.
Turning to “GCDVMQPYWGCDLNYECLAGCVCHWYNSCG [VEGF_CKP9.63.87]”, the “S/N (signal to noise ratio as compared to BSA control)” value (Table 27) amounted to 8.6. Under setting [1], this molecule came in with an ELISA of 0.9.
Regarding `CC(C)C[C@@H]1NC(=O)[C@@H]2CSSC[C@H](NC(=O)CNC(=O)[C@H](Cc3c[nH]c4ccccc34)NC(=O)[C@H](Cc3ccccc3)NC(=O)[C@@H]3CCCN3C(=O)[C@H](CCC(N)=O)NC(=O)[C@H]([C@@H](C)O)NC(=O)[C@H](CCCNC(=N)N)NC(=O)[C@H](CCC(N)=O)NC(=O)[C@@H](NC(=O)CN)CSSC[C@@H](C(=O)N[C@H](C(=O)N[C@H]3CSSC[C@@H](C(=O)NCC(=O)O)NC(=O)[C@H](CO)NC(=O)[C@H](CCC(N)=O)NC(=O)[C@H](Cc4ccc(O)cc4)NC(=O)[C@H](Cc4c[nH]c5ccccc45)NC(=O)[C@H](CCCNC(=N)N)NC3=O)C(C)C)NC(=O)CNC(=O)[C@H](C)NC1=O)C(=O)N[C@@H](CCCCN)C(=O)N[C@@H](CCC(N)=O)C(=O)N[C@@H](CC(=O)O)C(=O)N[C@@H](CO)C(=O)N[C@@H](CC(=O)O)C(=O)N2` [VEGF_CKP9.22] (H-GCQRTQPFWGCKQDSDCLAGCVCRWYQSCG-OH; disulfide 2-21, 11-17, 23-29 (inferred); N-terminus and C-terminus assumed), the “S/N (signal to noise ratio as compared to BSA control)” value (Table 24) amounted to 17.2. Further, the ELISA under setting [2] was determined as 1.2.
Take “GCQLMQPFWGCKQDSDCLAGCVCHWYQSCG [VEGF_CKP9.L5.18]”: for the setting “Table 23”, the “S/N (signal to noise ratio as compared to BSA control)” value was found to be 20.4. Moreover, where the note is “VEGF_CKP9 Loop5 affinity-matured variants, Table 23”, the ELISA was 1.6.
Regarding `CC(C)C[C@@H]1NC(=O)[C@@H]2CSSC[C@H](NC(=O)CNC(=O)[C@H](Cc3c[nH]c4ccccc34)NC(=O)[C@H](Cc3ccccc3)NC(=O)[C@@H]3CCCN3C(=O)[C@H](CCC(N)=O)NC(=O)[C@H](CC(C)C)NC(=O)[C@H](C(C)C)NC(=O)[C@H](CC(=O)O)NC(=O)[C@@H](NC(=O)CN)CSSC[C@@H](C(=O)N[C@H](C(=O)N[C@H]3CSSC[C@@H](C(=O)NCC(=O)O)NC(=O)[C@H](CO)NC(=O)[C@H](CCC(N)=O)NC(=O)[C@H](Cc4ccc(O)cc4)NC(=O)[C@H](Cc4c[nH]c5ccccc45)NC(=O)[C@H](Cc4c[nH]cn4)NC3=O)C(C)C)NC(=O)CNC(=O)[C@H](C)NC1=O)C(=O)N[C@@H](CCCCN)C(=O)N[C@@H](CCC(N)=O)C(=O)N[C@@H](CC(=O)O)C(=O)N[C@@H](CO)C(=O)N[C@@H](CC(=O)O)C(=O)N2` [VEGF_CKP9.2] (H-GCDVLQPFWGCKQDSDCLAGCVCHWYQSCG-OH; disulfide 2-21, 11-17, 23-29 (inferred); N-terminus and C-terminus assumed), the “S/N (signal to noise ratio as compared to BSA control)” value (Table 24) was found to be 31.1. Besides, the ELISA under setting [2] was determined as 2.4.
With `CC[C@H](C)[C@@H]1NC(=O)[C@H](CCC(=O)O)NC(=O)[C@H](Cc2c[nH]cn2)NC(=O)[C@@H]2CCCN2C(=O)[C@@H]2CCCN2C(=O)[C@H](Cc2c[nH]c3ccccc23)NC(=O)[C@@H]2CCCN2C(=O)[C@H]([C@@H](C)O)NC(=O)[C@H]([C@@H](C)O)NC(=O)[C@@H](NC(=O)CN)CSSC[C@@H]2NC(=O)CNC(=O)[C@H](C)NC(=O)[C@H](CC(C)C)NC(=O)[C@@H]3CSSC[C@@H](C(=O)NCC(=O)O)NC(=O)[C@H](Cc4ccccc4)NC(=O)CNC(=O)[C@H](CC(N)=O)NC(=O)[C@@H]4CCCN4C(=O)CNC(=O)[C@H](CSSC[C@H](NC(=O)[C@H](CCSC)NC1=O)C(=O)N[C@@H](CCCCN)C(=O)N[C@@H](CCC(N)=O)C(=O)N[C@@H](CC(=O)O)C(=O)N[C@@H](CO)C(=O)N[C@@H](CC(=O)O)C(=O)N3)NC(=O)[C@H](C(C)C)NC2=O` [VEGF_CKP12] (H-GCTTPWPPHEIMCKQDSDCLAGCVCGPNGFCG-OH; disulfide 2-23, 13-25, 19-31; N-terminus and C-terminus assumed), the “S/N (signal to noise ratio as compared to BSA control)” value (Table 19) turned out to be 55.2. The ELISA under setting [3] was 3.5.
With “GCDVMQPYWGCGNDVSCLAGCVCHWYNSCG [VEGF_CKP9.63.24]”, the “S/N (signal to noise ratio as compared to BSA control)” value (Table 27) was found to be 20.4. The molecule also showed an ELISA under setting [1] of 1.6.
